Tested on: Escherichia coli TOP10
Test: shrunken log2 fold change of peptide-encoding DNA abundance (4.5 h post-induction vs induction); higher = less antimicrobial activity (less host growth inhibition)
Settings: time post-induction: 4.5 h; library: site-saturation at positions 5, 18, 19, 20
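Further: peptides expressed intracellularly from a pBAD plasmid library in pooled LB shake-flask culture, induced with 0.3% L-arabinose, DNA abundance read by NGS, three biological replicates, DESeq2 with apeglm shrinkage.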

Sequence	shrunken log2 fold change
RRIRQRPPRLPRPRPRPTMLPRP	-0.339
RRIRARPPRLPRPRPRPNFRPRP	0.376
RRIRGRPPRLPRPRPRPEYNPRP	0.643
RRIRLRPPRLPRPRPRPSLNPRP	-0.625
RRIRMRPPRLPRPRPRPCMMPRP	-0.124
RRIRYRPPRLPRPRPRPALKPRP	0.0554
RRIRLRPPRLPRPRPRPIKKPRP	0.0365
RRIRMRPPRLPRPRPRPNIYPRP	-0.124
RRIRFRPPRLPRPRPRPLPQPRP	1.15
RRIRPRPPRLPRPRPRPCYNPRP	-0.868
RRIRGRPPRLPRPRPRPKKEPRP	0.042
RRIRNRPPRLPRPRPRPWVMPRP	-0.00783
RRIRKRPPRLPRPRPRPTITPRP	-0.1
RRIRSRPPRLPRPRPRPCWDPRP	-0.189
RRIRYRPPRLPRPRPRPCFHPRP	-1.42
RRIRARPPRLPRPRPRPKFCPRP	0.22
RRIRNRPPRLPRPRPRPQYRPRP	0.576
RRIRLRPPRLPRPRPRPFDSPRP	-0.174
RRIRSRPPRLPRPRPRPQWYPRP	-0.73
RRIRQRPPRLPRPRPRPVMLPRP	-0.124
RRIRLRPPRLPRPRPRPRHKPRP	0.258
RRIRYRPPRLPRPRPRPLLDPRP	-0.296
RRIRSRPPRLPRPRPRPRDKPRP	0.0811

Sequence	shrunken log2 fold change
RRIRNRPPRLPRPRPRPYSQPRP	-0.0488
RRIRIRPPRLPRPRPRPKDTPRP	-0.224
RRIRARPPRLPRPRPRPYPAPRP	-0.146
RRIRYRPPRLPRPRPRPYHFPRP	-0.535
RRIRFRPPRLPRPRPRPKLIPRP	-0.565
RRIRPRPPRLPRPRPRPRQFPRP	0.556
RRIRIRPPRLPRPRPRPWARPRP	0.0419
RRIRARPPRLPRPRPRPYKLPRP	-0.467
RRIRSRPPRLPRPRPRPSPIPRP	-0.467
RRIRYRPPRLPRPRPRPCKDPRP	-1.14
RRIRFRPPRLPRPRPRPTIPPRP	-0.562
RRIRFRPPRLPRPRPRPEEQPRP	0.162
RRIRERPPRLPRPRPRPHIVPRP	-0.0314
RRIRWRPPRLPRPRPRPITPPRP	0.145
RRIRFRPPRLPRPRPRPHLLPRP	-0.428
RRIRDRPPRLPRPRPRPGVRPRP	0.502
RRIRERPPRLPRPRPRPDFEPRP	-0.117
RRIRGRPPRLPRPRPRPFVQPRP	0.0324
RRIRIRPPRLPRPRPRPLKDPRP	-0.0958
RRIRWRPPRLPRPRPRPWLNPRP	-0.227
RRIRNRPPRLPRPRPRPGDQPRP	0.0802
RRIRNRPPRLPRPRPRPSTQPRP	-0.502
RRIRGRPPRLPRPRPRPATIPRP	0.138

Sequence	shrunken log2 fold change
RRIRFRPPRLPRPRPRPTVLPRP	-0.0624
RRIRMRPPRLPRPRPRPCNWPRP	-0.00208
RRIRKRPPRLPRPRPRPAYYPRP	-0.0726
RRIRHRPPRLPRPRPRPKIRPRP	-0.156
RRIRHRPPRLPRPRPRPGCNPRP	-0.175
RRIRARPPRLPRPRPRPPPFPRP	0.762
RRIRFRPPRLPRPRPRPMSEPRP	-0.381
RRIRGRPPRLPRPRPRPYQVPRP	0.174
RRIRGRPPRLPRPRPRPTTVPRP	0.368
RRIRMRPPRLPRPRPRPEQWPRP	0.184
RRIRFRPPRLPRPRPRPQCRPRP	-0.218
RRIRERPPRLPRPRPRPKTAPRP	-0.0233
RRIRNRPPRLPRPRPRPIIPPRP	-0.0623
RRIRMRPPRLPRPRPRPVATPRP	1.64
RRIRLRPPRLPRPRPRPRLMPRP	-0.197
RRIRYRPPRLPRPRPRPSNHPRP	-0.29
RRIRYRPPRLPRPRPRPQHDPRP	-1.4
RRIRYRPPRLPRPRPRPTGKPRP	0.019
RRIRCRPPRLPRPRPRPCLSPRP	-0.381
RRIRGRPPRLPRPRPRPYCFPRP	0.0329
RRIRSRPPRLPRPRPRPEWMPRP	0.0203
RRIRLRPPRLPRPRPRPGQWPRP	0.17
RRIRLRPPRLPRPRPRPSEMPRP	-0.0614

Sequence	shrunken log2 fold change
RRIRMRPPRLPRPRPRPTYMPRP	-0.131
RRIRVRPPRLPRPRPRPFESPRP	-0.0298
RRIRARPPRLPRPRPRPDEQPRP	0.0992
RRIRLRPPRLPRPRPRPYSDPRP	-0.0348
RRIRIRPPRLPRPRPRPHWVPRP	-0.0146
RRIRKRPPRLPRPRPRPGPAPRP	1.05
RRIRIRPPRLPRPRPRPQAWPRP	0.386
RRIRRRPPRLPRPRPRPELAPRP	0.927
RRIRRRPPRLPRPRPRPNHKPRP	-0.226
RRIRMRPPRLPRPRPRPRKPPRP	0.915
RRIRRRPPRLPRPRPRPVRDPRP	0.718
RRIRLRPPRLPRPRPRPHTYPRP	-0.257
RRIRYRPPRLPRPRPRPAILPRP	-0.402
RRIRYRPPRLPRPRPRPGPQPRP	-0.151
RRIRNRPPRLPRPRPRPNCDPRP	-0.237
RRIRMRPPRLPRPRPRPRWFPRP	0.717
RRIRERPPRLPRPRPRPVDGPRP	0.222
RRIRLRPPRLPRPRPRPNQHPRP	-0.222
RRIRMRPPRLPRPRPRPIAGPRP	-0.0293
RRIRGRPPRLPRPRPRPVKQPRP	0.216
RRIRARPPRLPRPRPRPNRRPRP	0.366
RRIRVRPPRLPRPRPRPGLCPRP	0.0795

From the supplement of paper PMC9112550, “Optimization of the antimicrobial peptide Bac7 by deep mutational scanning” (BMC Biology, 2022)
